In patent US20120058118A1 (Boehringer Ingelheim, published 2012) one finds IC50 data, which are given here for 18 molecules.

Assay [1] has as its target T1, human A-beta(1-40) peptide, monomeric (BAM) (human, biotin at the C-terminus in capture ELISA, SPR and TR-FRET; not biotinylated where coated directly (Example 7)).
T1 construct: synthetic peptide (Anaspec), TFA/HFIP treated to give monomer; also called monomeric A-beta
Put plainly: TR-FRET competition, labelled ABII42D4. A general note: In TR-FRET formats the signal depends on donor and acceptor labels being close together.

Assay [2] addresses T1, human A-beta(1-40) peptide, monomeric …. Description: TR-FRET competition; labelled competitor not given.
Assay [3] has the same target. Description: TR-FRET competition, mean IC50.

As a reminder, the IC50 is the concentration that inhibits the measured activity by half. A lower IC50 goes with higher potency.

Numbering of substitutions follows the chain as printed.

B1: ABII111B5_E109W (VHH)
VHH: EVQLVESGGGLVLAGGSLRLSCVHSGPTFRTDTMGWFRQAPGKEREFVAAVTWNSGRINYADSVKGRFTVSRDNTRNAAYLQMSGLKDEDTAVYYCTAHRFVVGGNMVWDWRYWGQGTQVTVSS
notes: targeted mutant
Take B1: in assay [1], the IC50 worked out at 0.0047 µM.

B2: ABII111B5_F101W (VHH)
VHH: B1 VHH with F101W, W109E
notes: targeted mutant
In turn, B2 displayed an IC50 in assay [1] of 0.0073 µM.

B3: ABII020 (VHH)
VHH: EVQLLESGGGLVQPGGSLRLSCAHSGPTFRTDTMGWFRQAPGKGREFVAAVTWNSGRINYADSVKGRFTISRDNSKNTLYLQMNSLRPEDTAVYYCAAHRFVVGGNRVEDWRYWGQGTLVTVSS
notes: humanized variant of ABII002
In the case of B3, the IC50 in assay [2] and in assay [3] was 0.11 µM in each case.

B4: ABII031 (VHH)
VHH: B3 VHH with A23V, T78A, L79V, N84S
notes: humanized variant of ABII002
For B4, the IC50 in assay [2] and in assay [3] was 0.013 µM each time.

B5: ABII030 (VHH)
VHH: B3 VHH with A23V, T78A, L79V
notes: humanized variant of ABII002
Take B5: the IC50 in assay [2] and in assay [3] was 0.012 µM in each case.

B6: ABII023 (VHH)
VHH: B3 VHH with T78A, L79A
notes: humanized variant of ABII002
In the case of B6, the IC50 in assay [2] and in assay [3] was 0.0058 µM each time.

B7: ABII033 (VHH)
VHH: B3 VHH with A23V, T78A, L79A, N84S
notes: humanized variant of ABII002
On to B7, for which the half-maximal inhibitory concentration (IC50) in assay [2] and in assay [3] was 0.004 µM throughout.

B8: ABII021 (VHH)
VHH: B3 VHH with T78A, L79V
notes: humanized variant of ABII002
In the case of B8, the IC50 in assay [2] and in assay [3] was 0.024 µM throughout.

B9: ABII027 (VHH)
VHH: B3 VHH with L79A, N84S
notes: humanized variant of ABII002
B9: the half-inhibitory concentration (IC50) in assay [2] and in assay [3] was 0.0044 µM in each case.

B10: ABII026 (VHH)
VHH: B3 VHH with L79A
notes: humanized variant of ABII002
Take B10: the IC50 in assay [2] and in assay [3] was 0.0051 µM throughout.

B11: ABII025 (VHH)
VHH: B3 VHH with L79V, N84S
notes: humanized variant of ABII002
For the molecule B11, the IC50 in assay [2] and in assay [3] was 0.018 µM each time.

B12: ABII032 (VHH)
VHH: B3 VHH with A23V, T78A, L79A
notes: humanized variant of ABII002
In the case of B12, the IC50 in assay [2] and in assay [3] was 0.0049 µM throughout.

B13: ABII036 (VHH)
VHH: B3 VHH with A23V, L79A, N84S
notes: humanized variant of ABII002
On to B13, for which the IC50 in assay [2] and in assay [3] was 0.0035 µM in each case.

B14: ABII034 (VHH)
VHH: B3 VHH with A23V, L79V, N84S
notes: humanized variant of ABII002
On to B14, for which the IC50 in assay [2] and in assay [3] was 0.01 µM throughout.

B15: ABII022 (VHH)
VHH: B3 VHH with T78A, L79V, N84S
notes: humanized variant of ABII002
Regarding B15, the IC50 in assay [2] and in assay [3] was 0.016 µM in each case.

B16: ABII029 (VHH)
VHH: B3 VHH with A23V
notes: humanized variant of ABII002
For B16, the half-inhibitory concentration (IC50) in assay [2] and in assay [3] was 0.089 µM throughout.

B17: ABII024 (VHH)
VHH: B3 VHH with T78A, L79A, N84S
notes: humanized variant of ABII002
With B17, the IC50 in assay [2] and in assay [3] was 0.006 µM each time.

B18: ABII028 (VHH)
VHH: B3 VHH with A23V, L79V
notes: humanized variant of ABII002
Turning to B18, the IC50 in assay [2] and in assay [3] was 0.011 µM throughout.
